In the data set the test system is Escherichia coli TOP10. The data set can be described thus: shrunken log2 fold change of peptide-encoding DNA abundance (4.5 h post-induction vs induction); higher = less antimicrobial activity (less host growth inhibition). To be noted: time post-induction: 4.5 h; library: site-saturation at positions 5, 18, 19, 20.
As to RRIRKRPPRLPRPRPRPSLEPRP, the “shrunken log2 fold change” value came to 0.286.
For the sequence RRIRYRPPRLPRPRPRPMHHPRP, the “shrunken log2 fold change” value is -0.596.
Take RRIRSRPPRLPRPRPRPNMQPRP: the “shrunken log2 fold change” value is -0.0719.
As for RRIRHRPPRLPRPRPRPDPVPRP, the “shrunken log2 fold change” value stood at 0.126.
For the sequence RRIRQRPPRLPRPRPRPFWTPRP, the “shrunken log2 fold change” value was -0.166.
As to RRIRSRPPRLPRPRPRPTMMPRP, the “shrunken log2 fold change” value was -0.253.
Consider RRIRNRPPRLPRPRPRPDVTPRP, for which the “shrunken log2 fold change” value is 0.216.
For RRIRGRPPRLPRPRPRPWAPPRP, the “shrunken log2 fold change” value amounted to 0.452.
The result for RRIRCRPPRLPRPRPRPSEQPRP reads -0.0681; that for RRIRFRPPRLPRPRPRPDSRPRP, 0.391.
As for RRIRKRPPRLPRPRPRPWMVPRP, the “shrunken log2 fold change” value is 0.0578.
Then RRIRRRPPRLPRPRPRPNFQPRP, with 0.253; and RRIRSRPPRLPRPRPRPLYNPRP, with -0.344; and RRIRFRPPRLPRPRPRPWKFPRP, with 0.0664.
Take RRIRSRPPRLPRPRPRPKLCPRP: the “shrunken log2 fold change” value amounted to 0.0502.
The result for RRIRMRPPRLPRPRPRPEHTPRP reads 2.63; that for RRIRHRPPRLPRPRPRPGPAPRP, 0.871.
Turning to RRIRERPPRLPRPRPRPTGGPRP, the “shrunken log2 fold change” value came out at 0.342.
The result for RRIRYRPPRLPRPRPRPPYMPRP reads -0.43; that for RRIRYRPPRLPRPRPRPAMRPRP, 0.372.
For RRIRDRPPRLPRPRPRPRKKPRP, the “shrunken log2 fold change” value is 0.0136.
The result for RRIRFRPPRLPRPRPRPEHSPRP reads -0.00202; that for RRIRWRPPRLPRPRPRPMRRPRP, 0.481.
The result for RRIRPRPPRLPRPRPRPPGSPRP reads 0.0805; that for RRIRCRPPRLPRPRPRPYTVPRP, -0.207.
Then RRIRYRPPRLPRPRPRPFRAPRP, with -0.142.
Regarding RRIRSRPPRLPRPRPRPDKNPRP, the “shrunken log2 fold change” value was -0.105.
The result for RRIRDRPPRLPRPRPRPPNIPRP reads -0.0733; that for RRIRWRPPRLPRPRPRPDPIPRP, -0.242.
RRIRARPPRLPRPRPRPNKDPRP: the “shrunken log2 fold change” value is -0.294.
For RRIRSRPPRLPRPRPRPLNFPRP, the “shrunken log2 fold change” value is -0.305.
Consider RRIRNRPPRLPRPRPRPMWYPRP, for which the “shrunken log2 fold change” value was -0.0267.
With RRIRIRPPRLPRPRPRPHPAPRP, the “shrunken log2 fold change” value was -0.516.
Then RRIRKRPPRLPRPRPRPPSQPRP, with 0.866; and RRIRERPPRLPRPRPRPIWYPRP, with 0.0381.
The result for RRIRCRPPRLPRPRPRPSIAPRP reads -0.3.
On to RRIRSRPPRLPRPRPRPLLPPRP, for which the “shrunken log2 fold change” value amounted to 0.405.
Then RRIRPRPPRLPRPRPRPWYCPRP, with -0.111.
Take RRIRRRPPRLPRPRPRPEHTPRP: the “shrunken log2 fold change” value was -0.0248.
Then RRIRDRPPRLPRPRPRPPYCPRP, with -0.0939; and RRIRCRPPRLPRPRPRPAVQPRP, with -0.0829; and RRIRHRPPRLPRPRPRPLVEPRP, with -0.0289.
For RRIRCRPPRLPRPRPRPYGMPRP, the “shrunken log2 fold change” value was -0.0815.
Then RRIRSRPPRLPRPRPRPKVRPRP, with 0.0559; and RRIRQRPPRLPRPRPRPNFMPRP, with 0.0789; and RRIRERPPRLPRPRPRPLYMPRP, with -0.748.
Then RRIRGRPPRLPRPRPRPDMTPRP, with 3.09.
The result for RRIRKRPPRLPRPRPRPPCYPRP reads 0.202.
In the case of RRIRQRPPRLPRPRPRPWIYPRP, the “shrunken log2 fold change” value worked out at 0.0039.
Take RRIRQRPPRLPRPRPRPGTRPRP: the “shrunken log2 fold change” value worked out at 0.111.
The result for RRIRWRPPRLPRPRPRPNVIPRP reads -0.161; that for RRIRTRPPRLPRPRPRPFPKPRP, -0.112.
The result for RRIRARPPRLPRPRPRPDTRPRP reads 0.0596; that for RRIRCRPPRLPRPRPRPACTPRP, -0.00637; that for RRIRARPPRLPRPRPRPGMDPRP, 0.543.
RRIRTRPPRLPRPRPRPKKEPRP: the “shrunken log2 fold change” value was -0.0512.
With RRIRWRPPRLPRPRPRPRGKPRP, the “shrunken log2 fold change” value was determined as 0.227.
As to RRIRRRPPRLPRPRPRPSQTPRP, the “shrunken log2 fold change” value was 0.294.
RRIRWRPPRLPRPRPRPKSNPRP: the “shrunken log2 fold change” value is -0.164.
For the sequence RRIRCRPPRLPRPRPRPRGYPRP, the “shrunken log2 fold change” value stood at 0.471.
The result for RRIRNRPPRLPRPRPRPDIRPRP reads -0.01.
In the case of RRIRTRPPRLPRPRPRPIQTPRP, the “shrunken log2 fold change” value was -0.0398.
In the case of RRIRTRPPRLPRPRPRPFALPRP, the “shrunken log2 fold change” value is -0.0597.
The result for RRIRVRPPRLPRPRPRPNRPPRP reads -0.262; that for RRIRFRPPRLPRPRPRPLSNPRP, -0.504; that for RRIRNRPPRLPRPRPRPLADPRP, -0.00474.
On to RRIRLRPPRLPRPRPRPTQEPRP, for which the “shrunken log2 fold change” value was found to be 0.0081.
Then RRIRRRPPRLPRPRPRPPPCPRP, with 0.864; and RRIRGRPPRLPRPRPRPMPTPRP, with 0.612; and RRIRSRPPRLPRPRPRPETQPRP, with 0.29.
Then RRIRHRPPRLPRPRPRPANNPRP, with -0.613.
RRIRMRPPRLPRPRPRPWDPPRP: the “shrunken log2 fold change” value was determined as 0.287.
The result for RRIRTRPPRLPRPRPRPEWSPRP reads 0.0383; that for RRIRNRPPRLPRPRPRPGEPPRP, 0.033.
The result for RRIRKRPPRLPRPRPRPRRVPRP reads 0.569; that for RRIRARPPRLPRPRPRPGYYPRP, -0.254.
For the sequence RRIRGRPPRLPRPRPRPYHLPRP, the “shrunken log2 fold change” value was -1.27.
Regarding RRIRPRPPRLPRPRPRPCAFPRP, the “shrunken log2 fold change” value is -0.148.
Then RRIRCRPPRLPRPRPRPYPNPRP, with -0.459; and RRIRMRPPRLPRPRPRPMHAPRP, with 0.327.
The result for RRIRSRPPRLPRPRPRPAQFPRP reads -0.114.
As for RRIRGRPPRLPRPRPRPLEFPRP, the “shrunken log2 fold change” value worked out at 0.319.
The result for RRIRPRPPRLPRPRPRPSQTPRP reads 0.265.
Then RRIRNRPPRLPRPRPRPLEAPRP, with -0.00641; and RRIRARPPRLPRPRPRPCLAPRP, with 0.328; and RRIRLRPPRLPRPRPRPHPIPRP, with 0.0174.
On to RRIRCRPPRLPRPRPRPDFDPRP, for which the “shrunken log2 fold change” value is -0.0217.
Then RRIRNRPPRLPRPRPRPAWGPRP, with 0.288; and RRIRKRPPRLPRPRPRPVHNPRP, with -0.0446.
The result for RRIRERPPRLPRPRPRPMPRPRP reads 0.0247; that for RRIRHRPPRLPRPRPRPDHSPRP, -0.00651.

Values taken from the supplement of paper PMC9112550, “Optimization of the antimicrobial peptide Bac7 by deep mutational scanning” (BMC Biology, 2022).
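Also: peptides expressed intracellularly from a pBAD plasmid library in pooled LB shake-flask culture, induced with 0.3% L-arabinose, DNA abundance read by NGS, three biological replicates, DESeq2 with apeglm shrinkage.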
